US20090041755A1, “Methods and Compositions For PDGF-D Activation and Inhibition” (Ludwig Institute For Cancer Research, priority 2005, published 2009)

How the values were obtained:
[1] = biological target: chimeric PDGF-C/PDGF-D molecule with CUB domain from PDGF-C and growth factor domain from PDGF-D (UniProt Q9NRA1)
[2] = biological target: chimeric PDGF-D/PDGF-C molecule with CUB domain from PDGF-D and growth factor domain from PDGF-C (UniProt Q9GZP0)
[3] = biological target: latent PDGF-CC (Homo sapiens, UniProt Q9NRA1); conditions: cited from earlier work
Sequence of latent PDGF-CC (Q9NRA1 23-345): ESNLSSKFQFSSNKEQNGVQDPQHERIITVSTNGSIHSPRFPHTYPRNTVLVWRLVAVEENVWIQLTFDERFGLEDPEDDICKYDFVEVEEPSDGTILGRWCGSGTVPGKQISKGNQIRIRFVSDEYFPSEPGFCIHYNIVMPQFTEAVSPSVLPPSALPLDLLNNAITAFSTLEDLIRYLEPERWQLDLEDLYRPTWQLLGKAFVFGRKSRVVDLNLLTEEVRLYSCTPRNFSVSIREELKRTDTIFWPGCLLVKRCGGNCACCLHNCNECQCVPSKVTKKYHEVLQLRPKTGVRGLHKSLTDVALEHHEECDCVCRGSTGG

Sequence of chimeric PDGF-C/PDGF-D molecule with CUB domain from PDGF-C and growth factor domain from PDGF-D (Q9NRA1 whole entry, looked up, change not shown, the tested form may be a part): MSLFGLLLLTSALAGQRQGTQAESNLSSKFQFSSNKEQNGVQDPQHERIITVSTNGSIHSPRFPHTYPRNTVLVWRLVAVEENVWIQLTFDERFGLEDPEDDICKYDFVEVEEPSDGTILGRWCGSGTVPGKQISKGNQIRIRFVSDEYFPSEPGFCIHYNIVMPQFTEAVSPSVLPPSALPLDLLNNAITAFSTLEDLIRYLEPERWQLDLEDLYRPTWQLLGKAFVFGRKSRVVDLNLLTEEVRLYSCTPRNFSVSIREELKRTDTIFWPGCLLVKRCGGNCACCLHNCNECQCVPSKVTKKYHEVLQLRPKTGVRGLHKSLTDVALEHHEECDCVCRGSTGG
Sequence of chimeric PDGF-D/PDGF-C molecule with CUB domain from PDGF-D and growth factor domain from PDGF-C (Q9GZP0 other isoform, or with tags, fused parts or gaps mutant): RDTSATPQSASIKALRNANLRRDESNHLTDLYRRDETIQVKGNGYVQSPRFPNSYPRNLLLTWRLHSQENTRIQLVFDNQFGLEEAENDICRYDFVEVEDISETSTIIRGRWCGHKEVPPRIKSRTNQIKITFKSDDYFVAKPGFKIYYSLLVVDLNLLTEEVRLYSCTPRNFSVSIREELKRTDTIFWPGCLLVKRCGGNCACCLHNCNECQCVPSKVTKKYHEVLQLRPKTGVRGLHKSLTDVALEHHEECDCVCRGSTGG

Substance | proteolytic release of the growth factor domain (co-transfection, SDS-PAGE and immunoblot) [1] | proteolytic release of the growth factor domain (co-transfection, SDS-PAGE and immunoblot) [2] | activation of latent PDGF-CC ([3]; Fredriksson et al. 2004) | substrate specificity of the protease ([3]; PDGF-CC versus PDGF-DD)
urokinase plasminogen activator (uPA) | Analysis of all the PDGF-D/PDGF-C chimeric molecules revealed that no released growth factor domain could be visualized using specific antibodies | Analysis of all the PDGF-D/PDGF-C chimeric molecules revealed that no released growth factor domain could be visualized using specific antibodies | – | –
tPA: tissue plasminogen activator, specific activator of PDGF-CC | – | – | activates latent PDGF-CC | specific for PDGF-CC
